Reference: patent US6723838 (Johns Hopkins, dated 2004)

T1: SYNGAP deletion mutant 894 to 1132 (-Q*) (rat, UniProt Q9QUH6 1067-1305)
T1 construct: PCR generated deletion mutant, ends in -Q; not shown: The GAL4 two-hybrid fusion domain and its junction residues
T1 sequence: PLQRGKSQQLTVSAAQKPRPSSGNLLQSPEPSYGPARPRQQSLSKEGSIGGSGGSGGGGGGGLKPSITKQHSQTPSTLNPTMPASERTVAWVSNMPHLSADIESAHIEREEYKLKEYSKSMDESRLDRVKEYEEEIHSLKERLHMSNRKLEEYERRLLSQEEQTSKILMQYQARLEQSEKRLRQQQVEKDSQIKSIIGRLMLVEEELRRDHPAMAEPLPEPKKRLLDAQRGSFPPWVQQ

T2: SYNGAP deletion mutant 894 to 1134 (-QTR*) (rat, UniProt Q9QUH6 1067-1307)
T2 construct: PCR generated deletion mutant, ends in -QTR; not shown: The GAL4 two-hybrid fusion domain and its junction residues
T2 sequence: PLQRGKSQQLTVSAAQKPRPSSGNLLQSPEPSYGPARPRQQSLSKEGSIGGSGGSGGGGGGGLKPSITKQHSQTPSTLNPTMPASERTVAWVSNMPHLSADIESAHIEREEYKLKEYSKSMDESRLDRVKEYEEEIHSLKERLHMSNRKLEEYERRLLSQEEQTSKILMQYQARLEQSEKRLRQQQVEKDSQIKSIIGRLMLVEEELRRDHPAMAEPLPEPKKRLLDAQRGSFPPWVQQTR

T3: SYNGAP of rat brain (endogenous) (rat, UniProt Q9QUH6 174-1308, limits assumed)
T3 construct: Native protein in brain homogenates, deoxycholate extracts of brain membranes and cultured hippocampal neurons; runs as a doublet or triplet, so the isoform is not certain; also called 130 kDa protein in brain; doublet or triplet of proteins at 130 kDa
T3 sequence: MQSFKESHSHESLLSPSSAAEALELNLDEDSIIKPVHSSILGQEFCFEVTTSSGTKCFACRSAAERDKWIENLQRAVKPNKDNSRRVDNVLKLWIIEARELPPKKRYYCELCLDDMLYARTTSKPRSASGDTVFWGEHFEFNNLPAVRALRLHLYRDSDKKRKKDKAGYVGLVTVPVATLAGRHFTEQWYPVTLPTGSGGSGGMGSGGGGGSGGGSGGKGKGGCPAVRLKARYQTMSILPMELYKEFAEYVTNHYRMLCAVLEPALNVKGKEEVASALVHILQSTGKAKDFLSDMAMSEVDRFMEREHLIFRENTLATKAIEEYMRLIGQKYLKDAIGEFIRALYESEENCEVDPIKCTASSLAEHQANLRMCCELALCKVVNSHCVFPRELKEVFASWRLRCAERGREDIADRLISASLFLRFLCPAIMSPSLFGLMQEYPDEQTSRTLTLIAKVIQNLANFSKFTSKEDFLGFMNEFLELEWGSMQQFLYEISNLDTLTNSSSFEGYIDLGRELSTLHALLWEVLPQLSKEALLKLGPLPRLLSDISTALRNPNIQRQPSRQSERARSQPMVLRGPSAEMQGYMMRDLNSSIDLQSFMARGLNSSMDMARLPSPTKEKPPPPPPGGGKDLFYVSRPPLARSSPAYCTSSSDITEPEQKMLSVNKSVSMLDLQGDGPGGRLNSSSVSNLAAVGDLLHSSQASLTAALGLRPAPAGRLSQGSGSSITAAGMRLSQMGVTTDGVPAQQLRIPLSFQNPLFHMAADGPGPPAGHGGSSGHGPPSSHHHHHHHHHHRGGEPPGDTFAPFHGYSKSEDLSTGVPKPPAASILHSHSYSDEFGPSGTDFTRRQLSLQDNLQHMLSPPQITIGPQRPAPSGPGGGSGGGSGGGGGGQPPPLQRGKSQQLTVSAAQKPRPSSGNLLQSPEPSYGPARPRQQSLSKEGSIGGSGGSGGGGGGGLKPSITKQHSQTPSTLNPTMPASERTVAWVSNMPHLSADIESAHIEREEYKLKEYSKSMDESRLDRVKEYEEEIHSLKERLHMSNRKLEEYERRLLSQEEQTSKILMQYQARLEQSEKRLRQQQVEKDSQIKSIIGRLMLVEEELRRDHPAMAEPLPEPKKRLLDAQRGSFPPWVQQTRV

B1: SAP102 PDZ 3 subcloned into yeast vector pPC 86 (other, UniProt Q62936 404-484, looked up, not shown: large carriers)
chain: KIILHKGSTGLGFNIVGGEDGEGIFVSFILAGGPADLSGELRRGDRILSVNGVNLRNATHEQAAAALKRAGQSVTIVAQYR
notes: domain: PDZ 3; Limits of the pPC86 construct are not restated; the bait construct of the same domain covers 367 to 452; also called third PDZ domain of SAP102
B2: GluR1 subunit of rat brain (endogenous) (receptor, UniProt P19490 19-907, looked up)
chain: ANFPNNIQIGGLFPNQQSQEHAAFRFALSQLTEPPKLLPQIDIVNISDSFEMTYRFCSQFSKGVYAIFGFYERRTVNMLTSFCGALHVCFITPSFPVDTSNQFVLQLRPELQEALISIIDHYKWQTFVYIYDADRGLSVLQRVLDTAAEKNWQVTAVNILTTTEEGYRMLFQDLEKKKERLVVVDCESERLNAILGQIVKLEKNGIGYHYILANLGFMDIDLNKFKESGANVTGFQLVNYTDTIPARIMQQWRTSDSRDHTRVDWKRPKYTSALTYDGVKVMAEAFQSLRRQRIDISRRGNAGDCLANPAVPWGQGIDIQRALQQVRFEGLTGNVQFNEKGRRTNYTLHVIEMKHDGIRKIGYWNEDDKFVPAATDAQAGGDNSSVQNRTYIVTTILEDPYVMLKKNANQFEGNDRYEGYCVELAAEIAKHVGYSYRLEIVSDGKYGARDPDTKAWNGMVGELVYGRADVAVAPLTITLVREEVIDFSKPFMSLGISIMIKKPQKSKPGVFSFLDPLAYEIWMCIVFAYIGVSVVLFLVSRFSPYEWHSEEFEEGRDQTTSDQSNEFGIFNSLWFSLGAFMQQGCDISPRSLSGRIVGGVWWFFTLIIISSYTANLAAFLTVERMVSPIESAEDLAKQTEIAYGTLEAGSTKEFFRRSKIAVFEKMWTYMKSAEPSVFVRTTEEGMIRVRKSKGKYAYLLESTMNEYIEQRKPCDTMKVGGNLDSKGYGIATPKGSALRNPVNLAVLKLNEQGLLDKLKNKWWYDKGECGSGGGDSKDKTSALSLSNVAGVFYILIGGLGLAMLVALIEFCYKSRSESKRMKGFCLIPQQSINEAIRTSTLPRNSGAGASGGGGSGENGRVVSQDFPKSMQSIPCMSHSSGMPLGATGL
notes: also called NMDA receptor GluR1 subunit (so in the source)

Experiments:
[1] = target: T1, SYNGAP deletion mutant 894 to 1132 (-Q*); test: yeast two-hybrid, HIS3 growth without leucine, tryptophan and histidine in 100 mM 3-aminotriazole
Source text: (§1) The PDZ domains of PSD-95/SAP90 and SAP102 were amplified by PCR and subcloned into the yeast vector, pPC 86. PDZ domain 1 of PSD-95 covers the amino acids from 40 to 160; PDZ domain 2, from 156 to 248; and PDZ domain 3, from 298 to 403. See e.g., Cho et al., (1992) Neuron 9:929 for disclosure relating to the PSD-95 sequence.

[2] = target: T2, SYNGAP deletion mutant 894 to 1134 …; test: as above
Source text: as §1

[3] = target: T3, SYNGAP of rat brain (endogenous); test: coimmunoprecipitation from deoxycholate solubilized rat brain membranes, immunoblot
Protocol: Cortex and hippocampus from a male Sprague-Dawley rat, age of 4 to 6 weeks were homogenized twice using a glass-Teflon homogenizer with protease inhibitors (antipain, chymotrypsin, leupeptin, Trasylol, 0.1 mM PMSF). After determining the protein concentration of the P2 fraction by a Coomasie assay (Pierce), aliquots of the proteins at 3 mg/ml were stored at −80° C. until use. For coimmunoprecipitation, PA (300 μg per IP) was solubilized by 1.0% sodium deoxycholate followed by 0.1% Triton X-100 and the preparation was centrifuged for 10 minutes at 100,000×g. The supernatant was then used for coimmunoprecipitation.
The clarified supernatant of solubilized P2 fraction was then added to the sepharose beads and the mixture incubated for 2 to 3 hours at 4° C. […] When the antibodies were blocked with antigens, they were preincubated with the peptide at concentration of 100 µg/ml or fusion proteins at concentration of 50 µg/ml.

Binder	binding result [1]	binding result [2]	binding result [3]
B1	no binding	no binding	
B2			no binding
